# Patent US20260176675
# Target: Eosinophil peroxidase (EPX) (Homo sapiens) (UniProt P11678+P11678)
# Experiment: cleavage_in_vitro
# Settings: 30 min
# Chain of Eosinophil peroxidase (EPX) (Homo sapiens) (P11678 140-250, chain 1 of 2): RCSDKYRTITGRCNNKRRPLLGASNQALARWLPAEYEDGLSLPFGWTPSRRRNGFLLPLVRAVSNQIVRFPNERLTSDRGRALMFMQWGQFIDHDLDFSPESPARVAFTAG
# Chain of Eosinophil peroxidase (EPX) (Homo sapiens) (P11678 251-715, chain 2 of 2): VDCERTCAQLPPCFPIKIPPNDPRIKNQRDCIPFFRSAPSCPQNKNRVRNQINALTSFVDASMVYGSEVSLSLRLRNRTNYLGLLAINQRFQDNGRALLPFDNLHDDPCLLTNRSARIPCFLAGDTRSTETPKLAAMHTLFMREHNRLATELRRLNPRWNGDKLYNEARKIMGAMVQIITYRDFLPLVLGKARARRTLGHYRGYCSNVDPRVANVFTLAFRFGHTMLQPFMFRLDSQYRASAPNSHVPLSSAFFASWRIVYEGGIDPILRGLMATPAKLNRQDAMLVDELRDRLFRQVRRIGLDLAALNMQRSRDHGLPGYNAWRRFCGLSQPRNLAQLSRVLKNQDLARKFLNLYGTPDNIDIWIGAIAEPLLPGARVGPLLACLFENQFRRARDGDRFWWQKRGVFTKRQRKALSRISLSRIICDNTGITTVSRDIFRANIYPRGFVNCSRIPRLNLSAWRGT
Sequence,"activity (single riboadenosine cleavage site in FS flanked by dabcyl-dT (5') and fluorescein-dT (3'), EPX-activated RNA-cleaving DNAzyme, selection buffer, RT, no cleavage in buffer alone) [% cleavage]","activity (single riboadenosine cleavage site in FS flanked by dabcyl-dT (5') and fluorescein-dT (3') [13 dabcyl-dT, 14 riboadenosine (R), 15 fluorescein-dT], 50 nM EPX, selection buffer with 15 mM MgCl2, RT) [% cleavage]","Kd (single riboadenosine cleavage site in FS flanked by dabcyl-dT (5') and fluorescein-dT (3') [13 dabcyl-dT, 14 riboadenosine (R), 15 fluorescein-dT], apparent Kd = EPX concentration giving 50% of maximum cleavage, 50 mM HEPES pH 7.5, 150 mM NaCl, 15 mM MgCl2, 0.01% Tween20, RT) [nM]"
CTATGAACTGACTATGACCTCACTACCAAGATGCCATCCTACCAACGGTCGATGGATGAGTAATACAGGCCGGATGGGTACAGTCGTAATCTATTCGAGCTCTGAACTCG [EPDz20 ligated to FS],15,–,–
CTATGAACTGACTATGACCTCACTACCAAGATGCCATCCTACCAACGGTCGATGGATGAGTAATACAGGCCGGATGGGTACAGTCG [EPDz20M4 ligated to FS (FS-EPDz20M4)],–,18,30
